From IntAct's records for PubMed 21596426

Tests used:
h4_human H4C16 = h4_human H4C16 (UniProt P62805)
h32_human H3C13 = h32_human H3C13 (UniProt Q71DI3)

| effect of a mutation on the interaction (h4_human H4C16) | effect of a mutation on the interaction (h32_human H3C13) | Substance |
| --- | --- | --- |
| disrupting interaction |  | Nucleosome-remodeling factor subunit BPTF (Homo sapiens) (from UniProt Q12830-4) F2870A |
|  | disrupting interaction | Nucleosome-remodeling factor subunit BPTF (Homo sapiens) (from UniProt Q12830-4) W2748E |
